# How the values were obtained:
# [1] = substrate: O=C(O)C(=O)CC1(C(=O)O)C=CC(O)C=C1; assay: purified protein; format: biochemical, Petunia x hybrida; settings: 20 mM Tris-HCl pH 8.0, 1 mM EDTA, 37 °C
# [2] = substrate: C=C(O[C@@H]1C=C(C(=O)O)C=C[C@H]1O)C(=O)O; assay: purified protein; format: biochemical, Petunia x hybrida; settings: 20 mM Tris-HCl pH 8.0, 1 mM EDTA, 37 °C
Protein,Km [1],Vmax [1],other results
PhADT3L (Petunia x hybrida) (protein) AGAAAVNTGVVNTPASNNTAGHVGASRTDWQSSCAILASKVVSQQQDTEKSGGAGNITAVNGHKILNLDLLPVESNRAKPLTITDLSPAPMHGAQLRVAYQGVPGAYSEAAAGKAYPKCEAIPCDQFEVAFQAVELWIADRAVLPIENSLGGSIHRNYDLLLRHRLHIVGEVQLPVHHCLLALPGVRKEYLTRVISHPQALAQCELTLTKLGLNVAREAVDDTAGAAEYIAANNLRDTAAIASSRAAELYGLDILEQGIQDDLSNVTRFVMLAREPIIPRTDRPFKTSIVFAHDKGTSVLFKVLSAFAFRNISLTKIESRPHRNRPIRLVDDANVGTAKHFEYMFYVDFEASMADVRAQNALAEVQEFTSFLRVLGSYPMDMTPWSPSRDA,358 ± 32 µM,0.125 µmol/min/mg,
"PhADT3S (Petunia x hybrida) (protein, short isoform starting at second in-frame ATG (133 residues downstream of first Met), intact catalytic and ACT domains, about 33 kD, N-terminal 6xHis tag (pET-28a), E. coli, Ni-NTA) MHGAQLRVAYQGVPGAYSEAAAGKAYPKCEAIPCDQFEVAFQAVELWIADRAVLPIENSLGGSIHRNYDLLLRHRLHIVGEVQLPVHHCLLALPGVRKEYLTRVISHPQALAQCELTLTKLGLNVAREAVDDTAGAAEYIAANNLRDTAAIASSRAAELYGLDILEQGIQDDLSNVTRFVMLAREPIIPRTDRPFKTSIVFAHDKGTSVLFKVLSAFAFRNISLTKIESRPHRNRPIRLVDDANVGTAKHFEYMFYVDFEASMADVRAQNALAEVQEFTSFLRVLGSYPMDMTPWSPSRDA",433 ± 73 µM,0.113 µmol/min/mg,
PhCM1 (Petunia x hybrida) (protein) QASATSLGLGNKNRVDETESYTLDGIRHSLIRQEDSIIFSLVERAQYCYNAETYDPDVFAMDGFHGSLVEYIVRETEKLHATVGRYKSPDEHPFFPKVLPEPVLPPMQYPKVLHPIADSININVKIWEMYFENLLPRLVKEGDDGNYGSTAVCDTICVQALSKRIHYGKFVAEAKYRASPEVYNAAIRAQDRNGLMDLLTYPAVEEAIKRRVEIKTRTYGQELHINGPENGGDPVYKIKPSLVAELYGDWIMPLTKEVQVQYLLRRLD,,,Km [2]: 174 ± 27 µM; Vmax [2]: 45.7 µmol/min/mg
"PhCM2 (Petunia x hybrida) (protein, coding region, N-terminal 6xHis tag (pET-28a), E. coli, Ni-NTA) MACGDYDDKLSLDLIRDSLIRQEDTIIFNLIERIKFPINSTLYKKPSSWFPDFTGSLFQYLFQETEALQSKVGRYLSPEENPFFPDNLPASIVPPSKCPPVLHPVAESININEKILDVYLNQLLPLFCTEADEGNYATTAACDIQLLQAISRRIHYGKFVAEVKFRDCSDEYTPLILAQQDRDALMKLLTFEVVEEMVKKRVAKKAMIFGQEVTLVDNAKEVKCKVDPLLVSRLYDEWIMPLTKHVQVEYLLRRLDQNKLTSI",,,Km ([2]; reaction volume 225 μl): 8.6 ± 1.2 µM; Vmax ([2]; reaction volume 225 μl): 114 µmol/min/mg

# Source: article PMC6318282, “Completion of the cytosolic post-chorismate phenylalanine biosynthetic pathway in plants” (Nature Communications, 2019)
